Test results: publication doi:10.1101/2025.03.22.644726

Key:
HERC5 HECT domain [1] = target: HERC5 HECT domain (UniProt Q9UII4); experiment: SEC
HERC5 HECT domain [2] = target: HERC5 HECT domain (UniProt Q9UII4); experiment: SAXS

Chain of HERC5 HECT domain (Q9UII4 702-1024): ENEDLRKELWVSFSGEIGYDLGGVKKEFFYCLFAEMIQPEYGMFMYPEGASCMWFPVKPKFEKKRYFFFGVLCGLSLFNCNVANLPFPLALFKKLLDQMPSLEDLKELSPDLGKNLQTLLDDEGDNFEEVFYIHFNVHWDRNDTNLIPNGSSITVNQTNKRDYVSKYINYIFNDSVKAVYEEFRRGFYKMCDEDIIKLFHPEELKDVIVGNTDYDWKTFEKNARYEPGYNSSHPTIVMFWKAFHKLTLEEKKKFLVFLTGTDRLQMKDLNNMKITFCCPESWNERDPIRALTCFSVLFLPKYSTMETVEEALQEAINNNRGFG

- stoichiometry N (HERC5 HECT domain [1]): 3
- stoichiometry N (HERC5 HECT domain [2]): 3
Substance: HERC5 HECT domain (from UniProt Q9UII4 702-1024) (domain or fragment)
